Measured values taken from the supplement of paper PMC9170038.

Test system: K4 kissing-loop RNA reporter
Assay: apparent KD of K4 kissing-loop reporter; higher = weaker reporter binding
Settings: Eterna round: R107
Protocol: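 RNA-MaP round R107: designed RNA switches with theophylline, tryptophan, arginine or FMN aptamers are transcribed on-chip within common flanks. They are titrated with a labelled K4 kissing-loop RNA reporter in RNA-MaP buffer (100 mM Tris pH 7.5, 80 mM KCl, 4 mM MgCl2), without ligand or with the indicated ligand. Median apparent KD per design.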

[1] = input ligand: theophylline 20 uM
[2] = input ligand: tryptophan 2.4 mM
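Note: bound reporter read as fluorescence of individual clusters on recovered sequencing chips by microscopy, with normalized cluster intensities fitted with a binding model.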

AAUUUUAAUCAUAAAUAAUAAAUAAAUGAUACCAGUAUUUUUUUUUACCCUUGGCAGCGUAUAUAAGGGCAGUGAUGUUGUCAGA [whbob_SS_Theo_A_w60]
apparent KD of K4 kissing-loop reporter (input ligand: FMN 200 uM): 236 nM | apparent KD of K4 kissing-loop reporter (input ligand: arginine 13.2 mM): 98.8 nM | apparent KD of K4 kissing-loop reporter (input ligand: none): 257 nM | apparent KD of K4 kissing-loop reporter [1]: 222 nM | apparent KD of K4 kissing-loop reporter [2]: 164 nM

ACACGUGUGGCAGGAUAUCGGGCUGUGGAUCGGCUGGUUGCUUAUUCUCGACCAGUGAUGUUGGUACGAGAAGGGCUACCCAGAA [Diorce]
apparent KD of K4 kissing-loop reporter (input ligand: FMN 200 uM): 149 nM | apparent KD of K4 kissing-loop reporter (input ligand: arginine 13.2 mM): 113 nM | apparent KD of K4 kissing-loop reporter (input ligand: none): 114 nM | apparent KD of K4 kissing-loop reporter [1]: 102 nM | apparent KD of K4 kissing-loop reporter [2]: 123 nM

ACACUAUCGUCAUAGACGGUAGUGAAAUGUGAGGAUAUGAGUGAUGUUAGAAGGCACAAAGACUGUAUCGAAUAGAUACAGUCAA [FmnA 6 #K4BetweenAptamer #OpenEnded]
apparent KD of K4 kissing-loop reporter (input ligand: FMN 200 uM): 558 nM | apparent KD of K4 kissing-loop reporter (input ligand: arginine 13.2 mM): 96.5 nM | apparent KD of K4 kissing-loop reporter (input ligand: none): 139 nM | apparent KD of K4 kissing-loop reporter [1]: 127 nM | apparent KD of K4 kissing-loop reporter [2]: 120 nM

ACACUUACACAUGAUACCAGAAUUCUACCGUAAAUAGUAAGUGAUGUUUGCUAACGGCUUUUCCCUUGGCAGCAUGAUCGGUAUU [theeternabot_sameState_KL_Theo_B_43]
apparent KD of K4 kissing-loop reporter (input ligand: FMN 200 uM): 201 nM | apparent KD of K4 kissing-loop reporter (input ligand: arginine 13.2 mM): 121 nM | apparent KD of K4 kissing-loop reporter (input ligand: none): 178 nM | apparent KD of K4 kissing-loop reporter [1]: 242 nM | apparent KD of K4 kissing-loop reporter [2]: 149 nM

ACACUUUACGUAGGAUAUGCGACGAGUGAUGUUCGUCAGGCGGCUUGAGCUUAAACAGGCCGUCUAGCAGAAGGACGGGCAGUGU [Diorsodi]
apparent KD of K4 kissing-loop reporter (input ligand: FMN 200 uM): 147 nM | apparent KD of K4 kissing-loop reporter (input ligand: arginine 13.2 mM): 143 nM | apparent KD of K4 kissing-loop reporter (input ligand: none): 192 nM | apparent KD of K4 kissing-loop reporter [1]: 194 nM | apparent KD of K4 kissing-loop reporter [2]: 168 nM

ACAGUCGGCUGUGAUACCAGUCGUAUUACAACAUGUUGCAGUGAUGUUGCGAGAUAGGAUGACCCUUGGCAGCACUCAGUACGAU [Same State Theophylline B GF9]
apparent KD of K4 kissing-loop reporter (input ligand: FMN 200 uM): 310 nM | apparent KD of K4 kissing-loop reporter (input ligand: arginine 13.2 mM): 99.7 nM | apparent KD of K4 kissing-loop reporter (input ligand: none): 173 nM | apparent KD of K4 kissing-loop reporter [1]: 179 nM | apparent KD of K4 kissing-loop reporter [2]: 144 nM

ACCUAGUAGACAGGAUAUCACGAUGACAGUGAUGUUGUCAUCAUCGAUUUGAGGAAACUCAGAUCGUGAGAAGGGUCUAACGACU [FMN B SS t7a]
apparent KD of K4 kissing-loop reporter (input ligand: FMN 200 uM): 147 nM | apparent KD of K4 kissing-loop reporter (input ligand: arginine 13.2 mM): 173 nM | apparent KD of K4 kissing-loop reporter (input ligand: none): 204 nM | apparent KD of K4 kissing-loop reporter [1]: 168 nM | apparent KD of K4 kissing-loop reporter [2]: 190 nM

ACGUCACGUAUACUGGUGGUUUCGAUCGAUACCAGUAGCGAGAGUUACCCUUGGCAGCGACAUGAGUGAUGUUUAUGUAUGAUGA [#13 K4 Theophylline A Exclusion]
apparent KD of K4 kissing-loop reporter (input ligand: FMN 200 uM): 639 nM | apparent KD of K4 kissing-loop reporter (input ligand: arginine 13.2 mM): 551 nM | apparent KD of K4 kissing-loop reporter (input ligand: none): 593 nM | apparent KD of K4 kissing-loop reporter [1]: 560 nM | apparent KD of K4 kissing-loop reporter [2]: 492 nM
